From the supplement of paper PMC11316812
± gives the standard deviation of the averaged measurements.

Legend:
hTERT-HMEC = assay: percentage of EdU-negative (G0-arrested) nuclei per well, 72 h; higher = more G0 arrest; details: reference: sequence is the full UniProt precursor, the tested protein was the secreted form or ectodomain
MCF7 = assay: as above; details: reference: sequence is the full UniProt precursor, the tested protein was the secreted form or ectodomain
[1] = protein concentration 0.0225 µM
[2] = protein concentration 0.03125 µM
[3] = protein concentration 0.3125 µM
[4] = protein concentration 0.0257143 µM
[5] = protein concentration 0.257143 µM
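Note: secreted proteins added to cultured cells, EdU pulse at the end, nuclei found by Hoechst imaging, EdU status from nuclear versus surrounding ring intensity ratio, PBS as neutral control.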

| Sequence | percentage of EdU-negative (hTERT-HMEC; [1]) [%] | percentage of EdU-negative (hTERT-HMEC; protein concentration 0.225 µM) [%] | percentage of EdU-negative (MCF7; [1]) [%] | percentage of EdU-negative (MCF7; protein concentration 0.225 µM) [%] | percentage of EdU-negative (hTERT-HMEC; [2]) [%] | percentage of EdU-negative (hTERT-HMEC; [3]) [%] | percentage of EdU-negative (MCF7; [2]) [%] | percentage of EdU-negative (MCF7; [3]) [%] | also measured |
| --- | --- | --- | --- | --- | --- | --- | --- | --- | --- |
| MAMRLILFFGALFGHIYCLETFVGDQVLEIVPSNEEQIKNLLQLEAQEHLQLDFWKSPTTPGETAHVRVPFVNVQAVKVFLESQGIAYSIMIEDVQVLLDKENEEMLFNRRRERSGNFNFGAYHTLEEISQEMDNLVAEHPGLVSKVNIGSSFENRPMNVLKFSTGGDKPAIWLDAGIHAREWVTQATALWTANKIVSDYGKDPSITSILDALDIFLLPVTNPDGYVFSQTKNRMWRKTRSKVSGSLCVGVDPNRNWDAGFGGPGASSNPCSDSYHGPSANSEVEVKSIVDFIKSHGKVKAFITLHSYSQLLMFPYGYKCTKLDDFDELSEVAQKAAQSLRSLHGTKYKVGPICSVIYQASGGSIDWSYDYGIKYSFAFELRDTGRYGFLLPARQILPTAEETWLGLKAIMEHVRDHPY | 6 ± 1 | 5.16 ± 0.28 | 25.6 ± 2.3 | 24.9 ± 0.71 | – | – | – | – | – |
| MANRGPAYGLSREVQQKIEKQYDADLEQILIQWITTQCRKDVGRPQPGRENFQNWLKDGTVLCELINALYPEGQAPVKKIQASTMAFKQMEQISQFLQAAERYGINTTDIFQTVDLWEGKNMACVQRTLMNLGGLAVARDDGLFSGDPNWFPKKSKENPRNFSDNQLQEGKNVIGLQMGTNRGASQAGMTGYGMPRQIL | – | – | – | – | 6.1 ± 1.2 | 5.189 ± 0.039 | 25.9 ± 1.3 | 25.2 ± 2.8 | – |
| MAPAGCCCCCCFWGGAVAAAGAARRVLLLLLLGVLSAGLRPGALATEHYSPLSLLKQELQHRQQQEAPAGGGGCSPQSGDWGDQYSAECGESSFLNFHDSDCEPKGSSPCDSLLSLNTEKILSQAKSIAEQKRFPFATDNDSTNEELAIAYVLIGSGLYDEAIRHFSTMLQEEPDLVSAIYGRGIAYGKKGLHDIKNAELALFELSRVITLEPDRPEVFEQRAEILSPLGRINEAVNDLTKAIQLQPSARLYRHRGTLYFISEDYATAHEDFQQSLELNKNQPIAMLYKGLTFFHRGLLKEAIESFKEALKQKVDFIDAYKSLGQAYRELGNFEAATESFQKALLLNQNHVQTLQLRGMMLYHHGSLQEALKNFKRCLQLEPYNEVCQYMKGLSHVAMGQFYEGIKAQTKVMLNDPLPGQKASPEYLKVKYLREYSRYLHAHLDTPLTEYNIDVDLPGSFKDHWAKNLPFLIEDYEEQPGLQPHIKDVLHQNFESYKPEVQELICVADRLGSLMQYETPGFLPNKRIHRAMGLAALEVMQAVQRTWTNSKVRMNGKTRLMQWRDMFDIAVKWRRIADPDQPVLWLDQMPARSLSRGFNNHINLIRGQVINMRYLEYFEKILHFIKDRILVYHGANNPKGLLEVREALEKVHKVEDLLPIMKQFNTKTKDGFTVNTKVPSLKDQGKEYDGFTITITGDKVGNILFSVETQTTEERTQLYHAEIDALYKDLTAKGKVLILSSEFGEADAVCNLILSLVYYFYNLMPLSRGSSVIAYSVIVGALMASGKEVAGKIPKGKLVDFEAMTAPGSEAFSKVAKSWMNLKSISPSYKTLPSVSETFPTLRSMIEVLNTDSSPRCLKKL [Q8NBP0] | – | – | – | – | – | – | – | – | percentage of EdU-negative (hTERT-HMEC; protein concentration 0.012 µM): 5.436 ± 0.048%; percentage of EdU-negative (hTERT-HMEC; protein concentration 0.12 µM): 11 ± 2.8%; percentage of EdU-negative (MCF7; protein concentration 0.012 µM): 25.9 ± 1.1%; percentage of EdU-negative (MCF7; protein concentration 0.12 µM): 27.7 ± 0.85% |
| MAPAGVSLRATILCLLAWAGLAAGDRVYIHPFHLVIHNESTCEQLAKANAGKPKDPTFIPAPIQAKTSPVDEKALQDQLVLVAAKLDTEDKLRAAMVGMLANFLGFRIYGMHSELWGVVHGATVLSPTAVFGTLASLYLGALDHTADRLQAILGVPWKDKNCTSRLDAHKVLSALQAVQGLLVAQGRADSQAQLLLSTVVGVFTAPGLHLKQPFVQGLALYTPVVLPRSLDFTELDVAAEKIDRFMQAVTGWKTGCSLMGASVDSTLAFNTYVHFQGKMKGFSLLAEPQEFWVDNSTSVSVPMLSGMGTFQHWSDIQDNFSVTQVPFTESACLLLIQPHYASDLDKVEGLTFQQNSLNWMKKLSPRTIHLTMPQLVLQGSYDLQDLLAQAELPAILHTELNLQKLSNDRIRVGEVLNSIFFELEADEREPTESTQQLNKPEVLEVTLNRPFLFAVYDQSATALHFLGRVANPLSTA | – | – | – | – | 5.56 ± 0.51 | 5.41 ± 0.61 | 23.9 ± 1.3 | 26.5 ± 1.4 | – |
| MAPAMESPTLLCVALLFFAPDGVLAVPQKPKVSLNPPWNRIFKGENVTLTCNGNNFFEVSSTKWFHNGSLSEETNSSLNIVNAKFEDSGEYKCQHQQVNESEPVYLEVFSDWLLLQASAEVVMEGQPLFLRCHGWRNWDVYKVIYYKDGEALKYWYENHNISITNATVEDSGTYYCTGKVWQLDYESEPLNITVIKAPREKYWLQFFIPLLVVILFAVDTGLFISTQQQVTFLLKIKRTRKGFRLLNPHPKPNPKNN | – | – | – | – | – | – | – | – | percentage of EdU-negative (hTERT-HMEC; [4]): 4.74 ± 1.5%; percentage of EdU-negative (hTERT-HMEC; [5]): 5.8 ± 0.29%; percentage of EdU-negative (MCF7; [4]): 24.7 ± 1.3%; percentage of EdU-negative (MCF7; [5]): 25.9 ± 1.7% |
| MAPAQRPLLPLLLLLLPLPPPPFARAEDAARANSDRYAVYWNRSNPRFHAGAGDDGGGYTVEVSINDYLDIYCPHYGAPLPPAERMEHYVLYMVNGEGHASCDHRQRGFKRWECNRPAAPGGPLKFSEKFQLFTPFSLGFEFRPGHEYYYISATPPNAVDRPCLRLKVYVRPTNETLYEAPEPIFTSNNSCSSPGGCRLFLSTIPVLWTLLGS | 5.69 ± 1.4 | 9.78 ± 0.54 | 25.4 ± 3 | 27.3 ± 0.45 | – | – | – | – | – |
